Assay results: patent US20250152742A1, “COMPOSITIONS AND METHODS FOR NEUROLOGICAL DISEASES” (Trames Bio, Inc., priority 2022, published 2025)

Test system: engineered chimeric receptor SEQ ID NO: 33 and its mutants (human α7-nAChR ligand binding domain / human GlyRα1 ion pore domain) in Lenti-X 293T cells
Assay: YFP fluorescence quenching anion reporter plate reader assay (percent quench, EC50)
Assay type: cell-based
Settings: for YFP fluorescence quenching using CNL001 (percent quench): receptor named in row; for YFP fluorescence quenching using Varenicline, 3 nM var: ligand Varenicline 3 nM; for YFP fluorescence quenching using Varenicline, 30 nM var: ligand Varenicline 30 nM; for YFP fluorescence quenching using Varenicline, 300 nM var: ligand Varenicline 300 nM; for YFP fluorescence quenching using Varenicline, 500 nM var: ligand Varenicline 500 nM; for YFP fluorescence quenching using Varenicline, 1 uM var: ligand Varenicline 1 uM
Method in brief: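 Lenti-X 293T cells co-expressing an anion-quenchable YFP were transiently transfected with receptor DNA, then ligand was added in NaI-substituted buffer (pH 7.2) after 30 min at 37 °C. Fluorescence was read about 2 min; percent quench = mean of last 10 s over 15 s pre-ligand baseline.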

B1: CODA71: parental chimeric LGIC: human α7-nAChR ligand binding domain with GlyRα1 Cys-loop fused to human GlyRα1 ion pore domain (protein)
chain: MRCSPGGVWLALAASLLHVSLQGEFQRKLYKELVKNYNPLERPVANDSQPLTVYFSLSLLQIMDVDEKNQVLTTNIWLQMSWTDHYLQWNVSEYPGVKTVRFPDGQIWKPDILLYNSADERFDATFHTNVLVNSSGHCQYLPPGIFKSSCPMDLKNFPMDVQTCKLKFGSWSYGGWSLDLQMQEADISGYIPNGEWDLVGIPGKRSERFYECCKEPYPDVTFTVTMRRRMGYYLIQMYIPSLLIVILSWISFWINMDAAPARVGLGITTVLTMTTQSSGSRASLPKVSYVKAIDIWMAVCLLFVFSALLEYAAVNFVSRQHKELLRFRRKRRHHKSPMLNLFQEDEAGEGRFNFSAYGMGPACLQAKDGISVKGANNSNTTNPPPAPSKSPEEMRKLFIQRAKKIDKISRIGFPMAFLIFNMFYWIIYKIVRREDVHNQ
modifications: synthetic sequence of chimeric LGIC
With B1 the “YFP fluorescence quenching using CNL001 (percent quench)” value (1 nM CNL001, first column so headed) was 3.727%, the “YFP fluorescence quenching using CNL001 (percent quench)” value (1 nM CNL001, second column so headed) was 20.231% and the “YFP fluorescence quenching using TC-5619/Bradanicline (percent quench)” value (1 nM brd (TC-5619/Bradanicline)) was 9.41%. The “YFP fluorescence quenching using TC-5619/Bradanicline (percent quench)” value (3 nM brd (TC-5619/Bradanicline)) was 44.38%, the “YFP fluorescence quenching using CNL001 (percent quench)” value (10 nM CNL001, first column so headed) was 81.096% and the “YFP fluorescence quenching using CNL001 (percent quench)” value (10 nM CNL001, second column so headed) was 82.368%. The “YFP fluorescence quenching using TC-5619/Bradanicline (percent quench)” value (10 nM brd (TC-5619/Bradanicline)) was 76.61%, the “YFP fluorescence quenching using TC-6683 (percent quench)” value (30 nM TC-6683) was −14.43% and the “YFP fluorescence quenching using TC-5619/Bradanicline (percent quench)” value (30 nM brd (TC-5619/Bradanicline)) was 70.23%. For the same molecule, the “YFP fluorescence quenching using CNL001 (percent quench)” value (50 nM CNL001, first column so headed) was 83.62%, the “YFP fluorescence quenching using CNL001 (percent quench)” value (50 nM CNL001, second column so headed) was 84.482% and the “YFP fluorescence quenching using ABT-126 (percent quench)” value (50 nM abt (ABT-126)) was −1.98%. For the same molecule, the “YFP fluorescence quenching using CNL001 (percent quench)” value (100 nM CNL001, first column so headed) was 84.297%, the “YFP fluorescence quenching using CNL001 (percent quench)” value (100 nM CNL001, second column so headed) was 85.368% and the “YFP fluorescence quenching (percent quench)” value (100 nM CNL002) was 49.61%. The “YFP fluorescence quenching using ABT-126 (percent quench)” value (100 nM abt (ABT-126)) was 24.27%, the “YFP fluorescence quenching using AZD-0328 (percent quench)” value (100 nM azd0328) was 73.59% and the “YFP fluorescence quenching using TC-5619/Bradanicline (percent quench)” value (100 nM brd (TC-5619/Bradanicline)) was 78.62%. For the same molecule, the “YFP fluorescence quenching using TC-6683 (percent quench)” value (300 nM TC-6683) was −13.08%, the “YFP fluorescence quenching using ABT-126 (percent quench)” value (300 nM abt (ABT-126)) was 56.8% and the “YFP fluorescence quenching using AZD-0328 (percent quench)” value (300 nM azd0328) was 78.09%. The “YFP fluorescence quenching using TC-5619/Bradanicline (percent quench)” value (300 nM brd (TC-5619/Bradanicline)) was 75.51%, the “YFP fluorescence quenching using ABT-126 (percent quench)” value (500 nM abt (ABT-126)) was 76.28% and the “YFP fluorescence quenching using CNL001 (percent quench)” value (1 uM CNL001, first column so headed) was 85.647%. The “YFP fluorescence quenching using CNL001 (percent quench)” value (1 uM CNL001, second column so headed) was 86.358%, the “YFP fluorescence quenching (percent quench)” value (1 uM CNL002) was 74.15% and the “YFP fluorescence quenching using ABT-126 (percent quench)” value (1 uM abt (ABT-126)) was 73.16%. The “YFP fluorescence quenching using TC-6683 (percent quench)” value (3 uM TC-6683) was −13.71%, the “YFP fluorescence quenching using ABT-126 (percent quench)” value (3 uM abt (ABT-126)) was 70.98% and the “YFP fluorescence quenching using ABT-126 (percent quench)” value (10 uM abt (ABT-126)) was 72.62%. The “YFP fluorescence quenching (percent quench)” value (10 uM ach (acetylcholine)) was 15.61%, the “YFP fluorescence quenching (percent quench)” value (30 uM CNL002) was 75.21% and the “YFP fluorescence quenching using TC-6683 (percent quench)” value (30 uM TC-6683) was −14.02%. The “YFP fluorescence quenching using ABT-126 (percent quench)” value (30 uM abt (ABT-126)) was 77.49%, the “YFP fluorescence quenching (percent quench)” value (30 uM ach (acetylcholine)) was 63.31% and the “YFP fluorescence quenching using AZD-0328 (percent quench)” value (30 uM azd0328) was 79.05%. The “YFP fluorescence quenching using ABT-126 (percent quench)” value (50 uM abt (ABT-126)) was 77.96%, the “YFP fluorescence quenching (percent quench)” value (50 uM ach (acetylcholine)) was 73.16% and the “YFP fluorescence quenching using TC-6683 (percent quench)” value (100 uM TC-6683) was −8.77%. For the same molecule, the “YFP fluorescence quenching using ABT-126 (percent quench)” value (100 uM abt (ABT-126)) was 77.81%, the “YFP fluorescence quenching (percent quench)” value (100 uM ach (acetylcholine)) was 74.94% and the “YFP fluorescence quenching (percent quench)” value (300 uM ach (acetylcholine)) was 65.94%. The “YFP fluorescence quenching (percent quench)” value (500 uM ach (acetylcholine)) was 62.78%, the “YFP fluorescence quenching (percent quench)” value (1 mM ach (acetylcholine)) was 74.24% and the “YFP fluorescence quenching (percent quench)” value (3 mM ach (acetylcholine)) was 76.27%. For the same molecule, the “YFP fluorescence quenching (percent quench)” value (5 mM ach (acetylcholine)) was 77.15%, the “YFP fluorescence quenching (percent quench)” value (10 mM ach (acetylcholine)) was 77.96% and the “YFP fluorescence quenching using Facinicline, 30 nM fac” value (ligand Facinicline 30 nM) was 53.42. For the same molecule, the “YFP fluorescence quenching using Facinicline, 100 nM fac” value (ligand Facinicline 100 nM) was 83.6, the “YFP fluorescence quenching using Facinicline, 300 nM fac” value (ligand Facinicline 300 nM) was 77.44 and the “YFP fluorescence quenching using Facinicline, 30 uM fac” value (ligand Facinicline 30 uM) was 79.62. The “YFP fluorescence quenching using TC-6987, 1 uM tc6987” value (ligand TC-6987 1 uM) was 31.56, the “YFP fluorescence quenching using TC-6987, 3 uM tc6987” value (ligand TC-6987 3 uM) was 31.82 and the “YFP fluorescence quenching using TC-6987, 5 uM tc6987” value (ligand TC-6987 5 uM) was 30.75. For the same molecule, the “YFP fluorescence quenching using TC-6987, 10 uM tc6987” value (ligand TC-6987 10 uM) was 56.68, the “YFP fluorescence quenching using TC-6987, 30 uM tc6987” value (ligand TC-6987 30 uM) was 51.46 and the “YFP fluorescence quenching using TC-6987, 50 uM tc6987” value (ligand TC-6987 50 uM) was 61.26. For the same molecule, the “YFP fluorescence quenching using TC-6987, 100 uM tc6987” value (ligand TC-6987 100 uM) was 43.21, the “YFP fluorescence quenching using TC-6987, 300 uM tc6987” value (ligand TC-6987 300 uM) was 7.79 and the “YFP fluorescence quenching using TC-6987, 500 uM tc6987” value (ligand TC-6987 500 uM) was 51.58. For the same molecule, the “YFP fluorescence quenching using Varenicline, 3 nM var” value (first column) was −2.36, the “YFP fluorescence quenching using Varenicline, 3 nM var” value (second column) was −3.522 and the “YFP fluorescence quenching using Varenicline, 30 nM var” value (first column) was −4.255. For the same molecule, the “YFP fluorescence quenching using Varenicline, 30 nM var” value (second column) was −3.636, the “YFP fluorescence quenching using Varenicline, 300 nM var” value (first column) was 46.195 and the “YFP fluorescence quenching using Varenicline, 300 nM var” value (second column) was 45.522. The “YFP fluorescence quenching using Varenicline, 500 nM var” value (first column) was 69.253, the “YFP fluorescence quenching using Varenicline, 500 nM var” value (second column) was 71.705 and the “YFP fluorescence quenching using Varenicline, 1 uM var” value (first column) was 79.254. The “YFP fluorescence quenching using Varenicline, 1 uM var” value (second column) was 79.244.
